# Source: the RNAGym collection of RNA variant scans (doi:10.7554/elife.90254)
# B1: LINE1-full (parent)
# chain: UACGUAGGUGGUUUUCCCCUGAUAGUGCUAAGGGGGCCUGGAAGUUUGGACUGGGCAGAGCUCAACACAGCGUGGCAAAGUGGCUGUGGCUAGACUGCCUCUCUGGAUUCCUCGUCACUCAGCAGGGCAUCUCUGAGAGAAAUGCC
# Variants of: B1
# Assay: self-cleavage, relative activity (ratio to wild type); higher = more cleavage; in vitro, sequencing; the parent is a self-cleaving ribozyme
row,Variant,self-cleavage
1,U62C G139A,0.03
2,U62C U73C,0.07
3,U62C U81A,0.04
4,U62C U81C,0.05
5,U62C U85A,0.03
6,U62C U85C,0.05
7,U62C U91A,0.08
8,U62C U91C,0.04
9,U62C U96A,0.03
10,U62C U96G,0
11,U62C U100A,0.05
12,U62C U102C,0.06
13,U62C U108C,0.05
14,U62C U108G,0
15,U62C U112A,0.05
16,U62C U112G,0
17,U62C U130A,0.07
18,U62C U132C,0.06
19,U62C U143G,0.08
20,U62G,0.05
21,U62G A65U,0.16

row,Variant,self-cleavage
1,U62G A69U,0.05
2,U62G A78G,0.06
3,U62G A129G,0.15
4,U62G A138C,0.09
5,U62G A141G,0.08
6,U62G C84G,0.49
7,U62G C113U,0.1
8,U62G G82U,0.03
9,U62G U104C,0.08
10,U62G U115C,0
11,C63A,0.06
12,C63A A64G,0.02
13,C63A A77G,0.04
14,C63A A117G,0.08
15,C63A A124U,0.03
16,C63A A142G,0.06
17,C63A A142U,0.05
18,C63A G97A,0.01
19,C63A U87A,0.04
20,C63A U87C,0.06
21,C63A U100C,0.04

row,Variant,self-cleavage
1,C63A U108C,0.08
2,C63A U119C,0.02
3,C63G,0.09
4,C63G U130C,0.34
5,C63U,0.36
6,C63U A77G,0.62
7,C63U A94G,0.06
8,C63U A124G,0.09
9,C63U A129U,0.54
10,C63U A136G,0.34
11,C63U A140G,0.25
12,C63U C90U,0
13,C63U C123U,0.38
14,C63U C128U,0.23
15,C63U G74A,0.22
16,C63U U81C,0.4
17,C63U U85C,0.08
18,C63U U85G,0.1
19,C63U U96A,0.05
20,C63U U96C,0
21,C63U U102A,0.33

row,Variant,self-cleavage
1,C63U U102C,0.28
2,C63U U104C,0.1
3,C63U U109A,0.12
4,C63U U115C,0.32
5,C63U U130C,0.39
6,A64C,0.35
7,A64C A67U,0.11
8,A64C A69G,0.35
9,A64C A78U,0.46
10,A64C A79G,0.28
11,A64C A94G,0.14
12,A64C A107G,0.36
13,A64C A117G,0.42
14,A64C A124U,0.27
15,A64C A129G,0.51
16,A64C A129U,0.14
17,A64C A140G,0.24
18,A64C A142G,0.25
19,A64C A142U,0.37
20,A64C C103A,0.29
21,A64C G75U,0.08
